We go through two substances from article PMC8160712.

For the assay, the target named is Recombinant protein G from Escherichia coli (group G Streptococci) (UniProt P06654). In words: total internal reflected imaging ellipsometry (TIRIE); protein G immobilised on EDC/NHS-activated MUA gold surface (100 μg/mL in the whole-process run); antibody flowed over for 20 min, rinsed with PBST; real-time grayscale signal.

Regarding Anti-CD9 antibody [MEM-61], the TIRIE signal increase stood at 900 grayscale and the TIRIE signal increment with protein G was 640.
With Anti-CD63 antibody [MEM-259], the TIRIE signal increase was determined as 900 grayscale and the TIRIE signal increment with protein G was determined as 650.
